Assay results taken from article PMC8531034, “Structural insights into RNA polymerase III-mediated transcription termination through trapping poly-deoxythymidine” (Nature Communications, 2021).

T1: RPC1, subunit of human RNA polymerase III (human, UniProt O14802 1-1390)
T1 construct: RPC1, largest subunit of human RNA polymerase III (catalytic core); Subunit of the 17-subunit Pol III complex; source: Expi293F cells, transiently expressed, purified to homogeneity as part of the recombinant human Pol III complex
T1 sequence: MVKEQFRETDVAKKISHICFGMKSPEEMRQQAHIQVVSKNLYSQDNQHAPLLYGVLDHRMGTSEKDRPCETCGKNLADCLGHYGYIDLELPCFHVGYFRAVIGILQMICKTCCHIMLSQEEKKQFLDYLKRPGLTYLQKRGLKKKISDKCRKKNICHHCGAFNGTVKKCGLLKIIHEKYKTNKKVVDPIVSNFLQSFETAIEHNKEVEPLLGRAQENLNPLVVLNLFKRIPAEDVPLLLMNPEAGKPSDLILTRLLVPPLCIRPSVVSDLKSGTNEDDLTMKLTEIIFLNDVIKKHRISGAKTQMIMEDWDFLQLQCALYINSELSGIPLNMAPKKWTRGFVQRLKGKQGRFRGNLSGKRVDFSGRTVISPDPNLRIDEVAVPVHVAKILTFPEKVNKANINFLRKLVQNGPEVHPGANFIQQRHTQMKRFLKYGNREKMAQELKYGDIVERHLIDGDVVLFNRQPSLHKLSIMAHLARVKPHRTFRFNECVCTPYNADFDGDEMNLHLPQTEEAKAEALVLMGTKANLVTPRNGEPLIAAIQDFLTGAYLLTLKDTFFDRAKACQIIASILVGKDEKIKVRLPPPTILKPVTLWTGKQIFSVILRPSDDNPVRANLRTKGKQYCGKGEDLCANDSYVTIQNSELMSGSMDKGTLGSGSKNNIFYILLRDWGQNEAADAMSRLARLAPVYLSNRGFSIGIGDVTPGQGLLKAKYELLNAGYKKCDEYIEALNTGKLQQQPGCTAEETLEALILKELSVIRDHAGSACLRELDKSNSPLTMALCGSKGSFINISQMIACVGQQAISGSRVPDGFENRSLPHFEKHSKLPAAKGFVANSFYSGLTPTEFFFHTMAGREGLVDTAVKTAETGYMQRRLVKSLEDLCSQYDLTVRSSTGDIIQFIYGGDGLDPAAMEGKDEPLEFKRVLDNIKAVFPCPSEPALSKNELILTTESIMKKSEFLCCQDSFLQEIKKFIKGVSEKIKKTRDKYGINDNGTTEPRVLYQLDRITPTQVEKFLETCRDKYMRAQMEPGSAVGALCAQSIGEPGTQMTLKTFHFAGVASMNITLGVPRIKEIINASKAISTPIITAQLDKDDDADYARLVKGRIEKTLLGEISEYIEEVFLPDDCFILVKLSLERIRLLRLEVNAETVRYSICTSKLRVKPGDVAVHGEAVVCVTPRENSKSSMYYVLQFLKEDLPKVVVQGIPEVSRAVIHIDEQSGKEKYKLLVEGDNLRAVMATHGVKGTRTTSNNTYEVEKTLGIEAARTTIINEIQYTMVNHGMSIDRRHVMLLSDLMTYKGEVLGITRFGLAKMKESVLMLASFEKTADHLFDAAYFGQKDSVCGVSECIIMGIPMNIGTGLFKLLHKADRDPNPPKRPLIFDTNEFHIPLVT

B1: RPC2, subunit of human RNA polymerase III (natural protein)
chain: MDVLAEEFGNLTPEQLAAPIPTVEEKWRLLPAFLKVKGLVKQHIDSFNYFINVEIKKIMKANEKVTSDADPMWYLKYLNIYVGLPDVEESFNVTRPVSPHECRLRDMTYSAPITVDIEYTRGSQRIIRNALPIGRMPIMLRSSNCVLTGKTPAEFAKLNECPLDPGGYFIVKGVEKVILIQEQLSKNRIIVEADRKGAVGASVTSSTHEKKSRTNMAVKQGRFYLRHNTLSEDIPIVIIFKAMGVESDQEIVQMIGTEEHVMAAFGPSLEECQKAQIFTQMQALKYIGNKVRRQRMWGGGPKKTKIEEARELLASTILTHVPVKEFNFRAKCIYTAVMVRRVILAQGDNKVDDRDYYGNKRLELAGQLLSLLFEDLFKKFNSEMKKIADQVIPKQRAAQFDVVKHMRQDQITNGMVNAISTGNWSLKRFKMDRQGVTQVLSRLSYISALGMMTRISSQFEKTRKVSGPRSLQPSQWGMLCPSDTPEGEACGLVKNLALMTHITTDMEDGPIVKLASNLGVEDVNLLCGEELSYPNVFLVFLNGNILGVIRDHKKLVNTFRLMRRAGYINEFVSISTNLTDRCVYISSDGGRLCRPYIIVKKQKPAVTNKHMEELAQGYRNFEDFLHESLVEYLDVNEENDCNIALYEHTINKDTTHLEIEPFTLLGVCAGLIPYPHHNQSPRNTYQCAMGKQAMGTIGYNQRNRIDTLMYLLAYPQKPMVKTKTIELIEFEKLPAGQNATVAVMSYSGYDIEDALVLNKASLDRGFGRCLVYKNAKCTLKRYTNQTFDKVMGPMLDAATRKPIWRHEILDADGICSPGEKVENKQVLVNKSMPTVTQIPLEGSNVPQQPQYKDVPITYKGATDSYIEKVMISSNAEDAFLIKMLLRQTRRPEIGDKFSSRHGQKGVCGLIVPQEDMPFCDSGICPDIIMNPHGFPSRMTVGKLIELLAGKAGVLDGRFHYGTAFGGSKVKDVCEDLVRHGYNYLGKDYVTSGITGEPLEAYIYFGPVYYQKLKHMVLDKMHARARGPRAVLTRQPTEGRSRDGGLRLGEMERDCLIGYGASMLLLERLMISSDAFEVDVCGQCGLLGYSGWCHYCKSSCHVSSLRIPYACKLLFQELQSMNIIPRLKLSKYNE
notes: RPC2, second largest subunit of human RNA polymerase III (catalytic core; lobe, protrusion, fork loops 1 and 2); Subunit of the 17-subunit Pol III complex; source: Expi293F cells, transiently expressed, purified to homogeneity as part of the recombinant human Pol III complex

Assays:
[1] = molecular target: B1; assay: cryo-EM structure; recombinant human Pol III (17 subunits) assembled with a DNA-RNA scaffold with seven dT in the non-template strand, 1:2 molar ratio, dialysed in 20 mM HEPES pH 8.0, 150 mM NaCl, 2 mM MgCl2, 2 mM DTT; 3D classification gave two states, PTC (3.6 Å, core 3.3 Å) and EC (3.6 Å); conditions: both partners purified
[2] = molecular target: T1, RPC1, subunit of human RNA polymerase …; assay: as above; conditions: both partners purified

binding result [1] | binding result [2] | Binder
binds | – | RPC4-RPC5 dimer module of human RNA polymerase III (complex, RPC4 of human RNA polymerase III (dimer module); RPC5 of human RNA polymerase III (dimer module; holds the hotspot); the mammal-specific C-terminal domain was not seen in the PTC map; Named throughout as a heterodimer; Part of the 17-subunit Pol III complex; also called RPC4-5; C53-C37 (yeast equivalent); source: Expi293F cells, transiently expressed, purified to homogeneity as part of the …) chain 1: MSEGNAAGEPSTPGGPRPLLTGARGLIGRRPAPPLTPGRLPSIRSRDLTLGGVKKKTFTPNIISRKIKEEPKEEVTVKKEKRERDRDRQREGHGRGRGRPEVIQSHSIFEQGPAEMMKKKGNWDKTVDVSDMGPSHIINIKKEKRETDEETKQILRMLEKDDFLDDPGLRNDTRNMPVQLPLAHSGWLFKEENDEPDVKPWLAGPKEEDMEVDIPAVKVKEEPRDEEEEAKMKAPPKAARKTPGLPKDVSVAELLRELSLTKEEELLFLQLPDTLPGQPPTQDIKPIKTEVQGEDGQVVLIKQEKDREAKLAENACTLADLTEGQVGKLLIRKSGRVQLLLGKVTLDVTMGTACSFLQELVSVGLGDSRTGEMTVLGHVKHKLVCSPDFESLLDHKHR chain 2: MANEEDDPVVQEIDVYLAKSLAEKLYLFQYPVRPASMTYDDIPHLSAKIKPKQQKVELEMAIDTLNPNYCRSKGEQIALNVDGACADETSTYSSKLMDKQTFCSSQTTSNTSRYAAALYRQGELHLTPLHGILQLRPSFSYLDKADAKHREREAANEAGDSSQDEAEDDVKQITVRFSRPESEQARQRRVQSYEFLQKKHAEEPWVHLHYYGLRDSRSEHERQYLLCPGSSGVENTELVKSPSEYLMMLMPPSQEEEKDKPVAPSNVLSMAQLRTLPLADQIKILMKNVKVMPFANLMSLLGPSIDSVAVLRGIQKVAMLVQGNWVVKSDILYPKDSSSPHSGVPAEVLCRGRDFVMWKFTQSRWVVRKEVATVTKLCAEDVKDFLEHMAVVRINKGWEFILPYDGEFIKKHPDVVQRQHMLWTGIQAKLEKVYNLVKETMPKKPDAQSGPAGLVCGDQRIQVAKTKAQQNHALLERELQRRKEQLRVPAVPPGVRIKEEPVSEEGEEDEEQEAEEEPMDTSPSGLHSKLANGLPLGRAAGTDSFNGHPPQGCASTPVARELKAFVEATFQRQFVLTLSELKRLFNLHLASLPPGHTLFSGISDRMLQDTVLAAGCKQILVPFPPQTAASPDEQKVFALWESGDMSDQHRQVLLEIFSKNYRVRRNMIQSRLTQECGEDLSKQEVDKVLKDCCVSYGGMWYLKGTVQS
binds | – | RPC10, subunit of human RNA polymerase III (natural protein, RPC10 of human RNA polymerase III, with N-terminal ribbon domain (N-ribbon) and C-terminal ribbon domain (C-ribbon); Subunit of the 17-subunit Pol III complex; also called C11 (yeast equivalent); source: Expi293F cells, transiently expressed, purified to homogeneity as part of the recombinant human Pol III complex) not shown
– | binds | B1
